Laboratory results from IntAct's records for PubMed 24744375.

B1: Disease resistance protein RRS1 (Arabidopsis thaliana (Mouse-ear cress)), P0DKH5 (parent)
chain: MTNCEKDEEFVCISCVEEVRYSFVSHLSEALRRKGINNVVVDVDIDDLLFKESQAKIEKAGVSVMVLPGNCDPSEVWLDKFAKVLECQRNNKDQAVVSVLYGDSLLRDQWLSELDFRGLSRIHQSRKECSDSILVEEIVRDVYETHFYVGRIGIYSKLLEIENMVNKQPIGIRCVGIWGMPGIGKTTLAKAVFDQMSSAFDASCFIEDYDKSIHEKGLYCLLEEQLLPGNDATIMKLSSLRDRLNSKRVLVVLDDVRNALVGESFLEGFDWLGPGSLIIITSRDKQVFCLCGINQIYEVQGLNEKEARQLFLLSASIKEDMGEQNLQELSVRVINYANGNPLAISVYGRELKGKKKLSEMETAFLKLKRRPPFKIVDAFKSTYDTLSDNEKNIFLDIACFFQGENVNYVIQLLEGCGFFPHVEIDVLVDKCLVTISENRVWLHKLTQDIGREIINGETVQIERRRRLWEPWSIKYLLEYNEHKANGEPKTTFKRAQGSEEIEGLFLDTSNLRFDLQPSAFKNMLNLRLLKIYCSNPEVHPVINFPTGSLHSLPNELRLLHWENYPLKSLPQNFDPRHLVEINMPYSQLQKLWGGTKNLEMLRTIRLCHSHHLVDIDDLLKAENLEVIDLQGCTRLQNFPAAGRLLRLRVVNLSGCIKIKSVLEIPPNIEKLHLQGTGILALPVSTVKPNHRELVNFLTEIPGLSEELERLTSLLESNSSCQDLGKLICLELKDCSCLQSLPNMANLDLNVLDLSGCSSLNSIQGFPRFLKQLYLGGTAIREVPQLPQSLEILNAHGSCLRSLPNMANLEFLKVLDLSGCSELETIQGFPRNLKELYFAGTTLREVPQLPLSLEVLNAHGSDSEKLPMHYKFNNFFDLSQQVVNDFLLKTLTYVKHIPRGYTQELINKAPTFSFSAPSHTNQNATFDLQSGSSVMTRLNHSWRNTLVGFGMLVEVAFPEDYCDATDVGISCVCRWSNKEGRSCRIERKFHCWAPWQVVPKVRKDHTFVFSDVNMRPSTGEGNDPDIWAGLVVFEFFPINQQTKCLNDRFTVRRCGVRVINVATGNTSLENIALVLSLDPVEVSGYEVLRVSYDDLQEMDKVLFLYIASLFNDEDVDFVAPLIAGIDLDVSSGLKVLADVSLISVSSNGEIVMHSLQRQMGKEILHGQSMLLSDCESSMTENLSDVPKKKKKHSESRVKKVVSIPAIDEGDLWTWRKYGQKDILGSRFPRGYYRCAYKFTHGCKATKQVQRSETDSNMLAITYLSEHNHPRPTKRKALADSTRSTSSSIC
partner: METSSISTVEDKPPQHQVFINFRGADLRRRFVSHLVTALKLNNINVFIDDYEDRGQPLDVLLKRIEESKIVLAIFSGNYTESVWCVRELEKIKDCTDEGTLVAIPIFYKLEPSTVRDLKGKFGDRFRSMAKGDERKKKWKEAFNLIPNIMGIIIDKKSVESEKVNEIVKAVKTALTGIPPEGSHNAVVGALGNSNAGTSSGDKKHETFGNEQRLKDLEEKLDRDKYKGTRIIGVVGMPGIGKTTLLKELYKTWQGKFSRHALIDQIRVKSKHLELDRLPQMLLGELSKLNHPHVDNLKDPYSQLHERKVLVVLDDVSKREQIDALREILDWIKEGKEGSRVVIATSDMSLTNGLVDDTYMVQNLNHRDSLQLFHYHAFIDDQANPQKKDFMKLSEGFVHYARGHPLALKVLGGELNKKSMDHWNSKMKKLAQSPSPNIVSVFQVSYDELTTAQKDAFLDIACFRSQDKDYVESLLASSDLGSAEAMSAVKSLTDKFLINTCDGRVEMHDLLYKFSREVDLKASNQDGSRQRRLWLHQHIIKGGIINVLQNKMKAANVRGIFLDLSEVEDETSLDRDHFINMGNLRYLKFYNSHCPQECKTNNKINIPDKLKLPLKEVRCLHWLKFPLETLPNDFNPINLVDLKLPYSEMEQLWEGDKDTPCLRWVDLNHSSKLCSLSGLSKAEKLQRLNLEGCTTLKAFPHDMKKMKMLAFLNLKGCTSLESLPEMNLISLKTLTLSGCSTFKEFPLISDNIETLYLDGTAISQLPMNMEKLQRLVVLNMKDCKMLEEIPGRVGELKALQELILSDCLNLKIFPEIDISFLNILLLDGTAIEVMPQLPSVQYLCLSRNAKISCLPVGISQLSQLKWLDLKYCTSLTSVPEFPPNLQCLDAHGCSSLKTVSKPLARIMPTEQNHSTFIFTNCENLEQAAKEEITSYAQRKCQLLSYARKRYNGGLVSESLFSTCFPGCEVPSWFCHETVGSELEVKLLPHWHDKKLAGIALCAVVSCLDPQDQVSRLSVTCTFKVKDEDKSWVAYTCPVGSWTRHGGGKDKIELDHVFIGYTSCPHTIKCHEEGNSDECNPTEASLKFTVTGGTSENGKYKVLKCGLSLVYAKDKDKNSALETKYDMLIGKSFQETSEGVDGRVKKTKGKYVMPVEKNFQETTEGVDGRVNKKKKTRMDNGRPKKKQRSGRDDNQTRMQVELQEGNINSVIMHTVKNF
B2: Disease resistance protein RPS4 (Arabidopsis thaliana (Mouse-ear cress)), Q9XGM3 (parent)
chain: B1 partner
partner: B1 chain

Variants of: B1
Settings: with rps4_arath RPS4, Q9XGM3

Effect of a mutation on the interaction, disrupting interaction strength:
R20A
D131A
Y101A
S25A;H26A
S25A
E128A
D103A
D103R

Variants of: B1
Settings: with rps4_arath RPS4, Q9XGM3
Remark: another data set of the same source

Effect of a mutation on the interaction, disrupting interaction strength:
H26A

Variants of: B2
Settings: with wrk52_arath RRS1, P0DKH5

Effect of a mutation on the interaction, disrupting interaction strength:
R29A
S33A;H34A
E160A
S33A
K157A
R30A
R30E

Variants of: B2
Settings: with wrk52_arath RRS1, P0DKH5
Remark: another data set of the same source

Effect of a mutation on the interaction, disrupting interaction strength:
H34A
